# Data taken from patent US10716830B2, “ERBB4 activator screening assay” (Children's Hospital Los Angeles, priority 2011, dated 2020).
# How the values were obtained:
# YAMC-B4 cells [1] = experiment: Cytokine (TNF plus IFN-γ)-induced apoptosis in cultured colon epithelial cells; format: cell-based, mouse; conditions: NRG4 100 ng/ml, TNF 100 ng/ml plus IFN-γ 150 U/ml, 6 h, p<0.03
# Excerpt: (§1) Conditionally immortalized, non-transformed young adult mouse colon (YAMC) epithelial cells were provided by Dr. Robert Whitehead (Whitehead, R. H., VanEeden, P. E., Noble, M. D., Ataliotis, P., and Jat, P. S. (1993) Proc Natl Acad Sci USA 90, 587-591). These cells express low levels of endogenous ErbB4; YAMC-B4 cells expressing a human ErbB4 construct were generated as previously described (Frey, M. R., Edelblum, K. L., Mullane, M. T., Liang, D., and Polk, D. B. (2009) Gastroenterology 136, 217-226). […]
# Cultured mouse colonic epithelial cells expressing ErbB4 (YAMC-B4) cells were exposed to TNF (100 ng/ml) plus interferon (IFN)-γ (150 units/ml), with or without NRG4 (100 ng/ml). After 6 h, the cells were fixed and apoptosis was assessed by immunofluorescence analysis for cleaved caspase-3. When the YAMC-B4 cells were given 100 ng/ml NRG4, cells were protected from apoptosis induced by the 6 h exposure to the cytokine cocktail containing TNF (100 ng/ml) and IFN-γ (150 U/ml), as measured by immunofluorescence analysis for cleaved caspase-3 (FIG. 1B; 2.7-fold decrease with cytokines plus NRG4 vs. cytokines alone, p<0.03).
# [2] = test system: EGFR, ErbB2, ErbB3, and ErbB4; experiment: ErbB receptor phosphorylation by western blot with phospho-specific antibodies; format: cell-based, mouse; conditions: YAMC-B4 cells (human ErbB4 construct); 10 min; HRG-1β 100 ng/ml, NRG4, EGF 10 ng/ml
# Excerpt: as §1
# (§2) Cell lysates were extracted in modified RIPA buffer as previously described (Frey, M. R., Dise, R. S., Edelblum, K. L., and Polk, D. B. (2006) Embo J 25, 5683-5692), cleared by centrifugation, and boiled in Laemmli sample buffer. Samples were separated on SDS-polyacrylamide gels (6-10% as appropriate), blotted on PVDF membranes, and subjected to quantitative immunoblot using the Li-Cor Odyssey infrared detection system. Equal loading was monitored by immunoblots for actin and at least one additional protein.
# Phosphorylation of EGFR, ErbB2, ErbB3, and ErbB4 was determined by western blot analysis of cell lysates using phospho-specific antibodies. […]
# colon epithelial cells = experiment: Cytokine-induced colon epithelial apoptosis in vivo; parameters: species or system mouse; conditions: C57Bl/6 mice, NRG4 100 μg/kg i.p., TNF 250 μg/kg plus IFN-γ 250 U/g, 24 h
# Procedure: All animal use was approved and monitored by the Children's Hospital Los Angeles Institutional Animal Care and Use Committee. […] Cytokines, growth factors, and inhibitors were given by intraperitoneal injection. 24 h after injections, mice were sacrificed and colons collected either for fixation and embedding or for epithelial lysates. For the latter, colons were incubated in Cell Recovery Solution (BD Biosciences, San Jose, Calif.) for 1 h at 4° C.; crypts were released by vigorous shaking and collected by centrifugation, similar to as previously described (Whitehead, R. H., and Robinson, P. S. (2009) American journal of physiology. Gastrointestinal and liver physiology 296, G455-460). Collected crypts were lysed and processed similar to cultured cells as below. […]
# For apoptosis analysis in vivo, mice were injected i.p. with PBS/vehicle, TNF (250 μg/kg) plus IFN-γ (250 units/g), NRG4 (100 μg/kg), or NRG4 plus TNF and IFN-γ. […] Apoptosis was detected by in situ oligo ligation (ISOL; EMD Millipore, Billerica, Mass.) staining for DNA fragmentation on sections of paraffin-embedded tissue, and by cleaved caspase-3 western blot on homogenates.
# 24 hours after injections, colons were harvested. Apoptosis assessed by Western blot analysis for cleaved caspase-3 on isolated epithelial cells determined that NRG4 blocked cytokine-induced apoptosis in vivo (FIG. 3A, B; 3.6-fold decrease, p=0.012).
# YAMC-B4 cells [3] = experiment: EdU proliferation assay; format: cell-based, mouse; conditions: 24 h stimulation
# Procedure: (§3) Proliferative index in fixed colon specimens was assessed by immunohistochemical stain for Ki-67. In vitro, cells were exposed to vehicle or growth factors for 24 h, then labeled with 5-ethynyl-2-deoxyuridine (EdU) for 2 h and fixed. Nuclei were marked with DAPI, and incorporated EdU was detected using a Click-iT EdU kit (Invitrogen).
# (§4) Most ErbB ligands stimulate multiple cellular processes, including proliferation and migration, in colon epithelial cells (Frey, M. R., Golovin, A., and Polk, D. B. (2004) J Biol Chem 279, 44513-44521). To determine if NRG4 is similarly broad in its cellular effects, we subjected YAMC-B4 cells to proliferation assays in the presence of NRG4. […] In vivo, the number of Ki67-positive nuclei per crypt in PBS vs. NRG4-injected mice was not altered 24 h post-injection (FIG. 4B).
# colon crypts = experiment: Ki-67 proliferative index in colon in vivo; parameters: species or system mouse; conditions: 24 h post-injection
# Procedure: as §3, §4
# YAMC-B4 cells [4] = experiment: Cell migration/restitution (modified scratch) assay; format: cell-based, mouse; conditions: 8 h
# Procedure: Cells grown on fibronectin-coated plates were subjected to multiple circular wounds with a rotating silicone probe as previously described (Corredor, J., Yan, F., Shen, C. C., Tong, W., John, S. K., Wilson, G., Whitehead, R., and Polk, D. B. (2003) American journal of physiology. Cell physiology 284, C953-961). Cultures were photographed immediately and 8 h after wounding; % closure was determined by measuring wounds in Image.
# To test the potential effect of NRG4-ErbB4 signaling on cell motility, we used a modified scratch assay for restitution/migration (Corredor, J., Yan, F., Shen, C. C., Tong, W., John, S. K., Wilson, G., Whitehead, R., and Polk, D. B. (2003) American journal of physiology. Cell physiology 284, C953-961). Over an 8 h period, NRG4 had no effect on the rate at which YAMC-B4 cells moved into the denuded area of a culture plate (FIG. 4C), while in contrast EGF caused a 54% increase in migration over control.
# [5] = Dextran sodium sulfate-induced acute murine colitis; format: in vivo, mouse; conditions: C57/BL6 mice, NRG4 100 μg/kg injected daily vs PBS
# Procedure: 6-8 week-old male C57/BL6 mice were given 3% DSS in drinking water for 7 days and injected daily with either PBS or NRG4 (100 μg/kg). Weight-loss was monitored over the course of the experiment (FIG. 4D(i)). On day 7, mice were sacrificed; colons were excised, rolled and fixed. H&E sections were scored by a pathologist blind to the experimental conditions using a scoring system adapted from that of Dielman et al. (Dieleman, L. A., et al., Chronic experimental colitis induced by dextran sulphate sodium (DSS) is characterized by Th1 and Th2 cytokines. Clinical and experimental immunology, 1998. 114(3): p. 385-91) (FIG. 4D(ii)).
# Akt [6] = experiment: Akt phosphorylation in whole cell lysates by western blot; format: cell-based, mouse; conditions: YAMC-B4 cells; NRG4 100 ng/ml, 10 min
# Excerpt: as §2
# (§5) To identify signaling pathways which could be involved in NRG4-stimulated cell survival, we exposed YAMC-B4 cells to NRG4 or EGF and prepared whole cell lysates for western blot analysis. […] Furthermore, COX-2 expression, which is induced by either HRG-1β or EGF after 6 h exposure, and is required for cell survival induced by ErbB4-EGFR dimers (Frey, M. R., Hilliard, V. C., Mullane, M. T., and Polk, D. B. (2010) Laboratory Investigation 90, 1415-1424), was not induced by NRG4. Thus, NRG4 promotes cell survival through pathways at least partly distinct from those activated by other ligands.
# ERK MAPK = ERK MAPK phosphorylation in whole cell lysates by western blot; format: cell-based, mouse; conditions: YAMC-B4 cells; NRG4 100 ng/ml, 10 min
# Excerpt: as §2, §5
# COX-2 = COX-2 expression in YAMC-B4 cells; format: cell-based, mouse; conditions: 6 h exposure
# Procedure: as §5
# Akt [7] = experiment: Akt phosphorylation in colon epithelium of injected mice; format: in vivo, mouse; conditions: mice injected with NRG4, with or without TNF plus IFN-γ; 24 h
# Procedure: All animal use was approved and monitored by the Children's Hospital Los Angeles Institutional Animal Care and Use Committee. […] Cytokines, growth factors, and inhibitors were given by intraperitoneal injection. 24 h after injections, mice were sacrificed and colons collected either for fixation and embedding or for epithelial lysates. For the latter, colons were incubated in Cell Recovery Solution (BD Biosciences, San Jose, Calif.) for 1 h at 4° C.; crypts were released by vigorous shaking and collected by centrifugation, similar to as previously described (Whitehead, R. H., and Robinson, P. S. (2009) American journal of physiology. Gastrointestinal and liver physiology 296, G455-460). Collected crypts were lysed and processed similar to cultured cells as below. For murine colitis, IL-10^−/− mice on C57Bl/6 background were maintained unchallenged until 32-36 weeks of age, at which point knockout mice but not wild-type animals have extensive inflammatory cytokine-driven colitis (Kuhn, R., Lohler, J., Rennick, D., Rajewsky, K., and Muller, W. (1993) Cell 75, 263-274).
# Tissues and cells were fixed with 4% paraformaldehyde (Electron Microscopy Sciences, Hatfield, Pa.). […] For immunofluorescence, slides were mounted with Vectashield medium containing DAPI (Vector Laboratories, Burlingame, Calif.). […]
# [8] = test system: rat intestinal epithelial cells; experiment: Cronobacter sakazakii-induced apoptosis in cultured intestinal epithelial cells; format: cell-based
# Excerpt: NRG4 inhibits CS-induced cell death.
# [9] = Experimental necrotizing enterocolitis (NEC) model
molecule,measurement,setting,value
"Neuregulin-4 (protein, UniProt Q8WWG1 1-62, looked up, ectodomain, ErbB4-specific ligand) extracellular domain: MPTDHEEPCGPSHKSFCLNGGLCYVIPTIPSPFCRCVENYTGARCEEVFLPGSSIQTKSNLF","decrease in apoptosis (cleaved caspase-3 immunofluorescence), cytokines plus NRG4 vs. cytokines alone",YAMC-B4 cells [1],2.7 fold
same,"phosphorylation of EGFR, ErbB2, ErbB3, and ErbB4",[2],activated only ErbB4
same,"decrease in apoptosis, ISOL staining on fixed colon sections",colon epithelial cells; p<0.0001,3.1 fold
same,"decrease in cytokine-induced apoptosis, cleaved caspase-3 western blot on isolated epithelial cells",colon epithelial cells; p=0.012,3.6 fold
same,"cellular uptake of EdU (proliferation) vs. control, in words",YAMC-B4 cells [3],not different from control
same,"number of Ki67-positive nuclei per crypt, PBS vs. NRG4-injected mice",colon crypts,not altered
same,"rate at which cells moved into the denuded area (migration), in words",YAMC-B4 cells [4],no effect
same,colon shortening,[5]; 3% DSS 7 days,reduces
same,histologically detectable colonic damage,"[5]; 3% DSS 7 days, blinded H&E score",reduces
same,weight loss,[5]; 3% DSS in drinking water 7 days,reduces
same,phosphorylation of Akt,Akt [6],resulted in phosphorylation of Akt
same,phosphorylation of ERK MAPK,ERK MAPK,not ERK MAPK
same,COX-2 expression,COX-2,not induced
same,"Akt phosphorylation in colon epithelial cells versus controls (western blot, immunofluorescence)",Akt [7],increased Akt phosphorylation
same,Cronobacter sakazakii induced apoptosis,[8],attenuates
same,protection of the small intestine,[9]; formula feeding/hypoxia model of necrotizing enterocolitis,protective
same,survival of rat pups,"[9]; hypoxia/hypothermia model of NEC in rat pups, given by gavage with each feed",survive longer
